Molecular target: His-tagged N-terminal domain (1-165 aa) of matrix protein 1 (M1) of influenza A virus A/WSN/33 (H1N1) (Influenza A virus A/WSN/33 (H1N1)) (UniProt P05777)
Experiment: crystal structure

His-tagged N-terminal domain (1-165 aa) of matrix protein 1 (M1) of influenza A virus A/WSN/33 (H1N1) (from UniProt P05777 1-165) (domain or fragment)
stoichiometry N: 2

From publication PMC4190115
